# Measured values reported in the RNAGym collection of RNA variant scans (doi:10.1093/molbev/msab373).
# B1: Azoarcus group I ribozyme (parent)
# chain: GUGCCUUGCGCCGGGAAACCACGCAAGGGAUGGUGUCAAAUUCGGCGAAACCUAAGCGCCCGCCCGGGCGUAUGGCAACGCCGAGCCAAGCUUCGGCGCCUGCGCCGAUGAAGGUGUAGAGACUAGACGGCACCCACCUAAGGCAAACGCUAUGGUGAAGGCAUAGUCCAGGGAGUGGCGAAAGUCACACAAACCGG
# Variants of: B1
# Experiment: reverse-splicing fitness (ratio to wild type); higher = more active; in vitro selection; Mg2+ level not given
# How it was run: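 An in vitro group I ribozyme library with randomized positions was T7-transcribed and gel-purified. In triplicate, 10 pmol RNA in EPPS pH 7.5 was reacted with 50 pmoles of a 30-nt RNA substrate for 1 h at 37 °C across several added MgCl2 levels (1–48 mM), then stopped with EDTA. Products were reverse transcribed from a substrate-complementary primer, PCR-amplified and sequenced (HiSeq 4000). Fitness is a variant's read proportion after selection over that before, normalised to wild type.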
row,Variant,reverse-splicing fitness
1,GUGCCUUGCGCCGGGAAACCACGCAAGGGAUGGUGUCAAAUUCGGCGAAACCUAAGCGCCCGCCCGGGCGUAUGGCAACGCGGAGCCAAGCUUCGGCGCCUGCGCCGAUGGAGGUGUAGAGACUAGACGGCACCCACCUAAGGCGAACGUUAUGGUGAAGGCAUAGUCAAGGGAGUGGCGAAAGUCACACAAACCGG [C82G A111G A145G C150U C169A],0.0104
2,GUGCCUUGCGCCGGGAAACCACGCAAGGGAUGGUGUCAAAUUCGGCGAAACCUAAGCGCCCGCCCGGGCGUAUGGCAACGCGGAGCCAAGCUUCGGCGCCUGCGCCGAUGGAGGUGUAGAGACUAGACGGCACCCACCUAAGGCGAACGGUAUGGUGAAGGCAUAGUCCAGGGAGGGGCGAAAGUCACACAAACCGG [C82G A111G A145G C150G U176G],0.00812
3,GUGCCUUGCGCCGGGAAACCACGCAAGGGAUGGUGUCAAAUUCGGCGAAACCUAAGCGCCCGCCCGGGCGUAUGGCAACGCGGAGCCAAGCUUCGGCGCCUGCGCCGAUGGAGGUGUAGAGACUAGACGGCACCCACCUAAGGCGAACGGUAUGGUGAAGGCAUAGUCCAGGGAGAGGCGAAAGUCACACAAACCGG [C82G A111G A145G C150G U176A],0.0145
4,GUGCCUUGCGCCGGGAAACCACGCAAGGGAUGGUGUCAAAUUCGGCGAAACCUAAGCGCCCGCCCGGGCGUAUGGCAACGCGGAGCCAAGCUUCGGCGCCUGCGCCGAUGGAGGUGUAGAGACUAGACGGCACCCACCUAAGGCGAACGGUAUGGUGAAGGCAUAGUCCAGGGAGCGGCGAAAGUCACACAAACCGG [C82G A111G A145G C150G U176C],0.026
5,GUGCCUUGCGCCGGGAAACCACGCAAGGGAUGGUGUCAAAUUCGGCGAAACCUAAGCGCCCGCCCGGGCGUAUGGCAACGCGGAGCCAAGCUUCGGCGCCUGCGCCGAUGGAGGUGUAGAGACUAGACGGCACCCACCUAAGGCGAACGGUAUGGUGAAGGCAUAGUCCAGGGAGUGGCGAAAGUCACACAAACCGG [C82G A111G A145G C150G],0.0374
6,GUGCCUUGCGCCGGGAAACCACGCAAGGGAUGGUGUCAAAUUCGGCGAAACCUAAGCGCCCGCCCGGGCGUAUGGCAACGCGGAGCCAAGCUUCGGCGCCUGCGCCGAUGGAGGUGUAGAGACUAGACGGCACCCACCUAAGGCGAACGUUAUGGUGAAGGCAUAGUCCAGGGAGUGGCGAAAGUCACACAAACCGG [C82G A111G A145G C150U],0.316
7,GUGCCUUGCGCCGGGAAACCACGCAAGGGAUGGUGUCAAAUUCGGCGAAACCUAAGCGCCCGCCCGGGCGUAUGGCAACGCGGAGCCAAGCUUCGGCGCCUGCGCCGAUGGAGGUGUAGAGACUAGACGGCACCCACCUAAGGCGAACGGUAUGGUGAAGGCAUAGUCGAGGGAGCGGCGAAAGUCACACAAACCGG [C82G A111G A145G C150G C169G U176C],0.0126
8,GUGCCUUGCGCCGGGAAACCACGCAAGGGAUGGUGUCAAAUUCGGCGAAACCUAAGCGCCCGCCCGGGCGUAUGGCAACGCGGAGCCAAGCUUCGGCGCCUGCGCCGAUGGAGGUGUAGAGACUAGACGGCACCCACCUAAGGCGAACGGUAUGGUGAAGGCAUAGUCGAGGGAGAGGCGAAAGUCACACAAACCGG [C82G A111G A145G C150G C169G U176A],0.011
9,GUGCCUUGCGCCGGGAAACCACGCAAGGGAUGGUGUCAAAUUCGGCGAAACCUAAGCGCCCGCCCGGGCGUAUGGCAACGCGGAGCCAAGCUUCGGCGCCUGCGCCGAUGGAGGUGUAGAGACUAGACGGCACCCACCUAAGGCGAACGGUAUGGUGAAGGCAUAGUCGAGGGAGGGGCGAAAGUCACACAAACCGG [C82G A111G A145G C150G C169G U176G],0.0064
10,GUGCCUUGCGCCGGGAAACCACGCAAGGGAUGGUGUCAAAUUCGGCGAAACCUAAGCGCCCGCCCGGGCGUAUGGCAACGCGGAGCCAAGCUUCGGCGCCUGCGCCGAUGGAGGUGUAGAGACUAGACGGCACCCACCUAAGGCGAACGGUAUGGUGAAGGCAUAGUCAAGGGAGAGGCGAAAGUCACACAAACCGG [C82G A111G A145G C150G C169A U176A],0.015
11,GUGCCUUGCGCCGGGAAACCACGCAAGGGAUGGUGUCAAAUUCGGCGAAACCUAAGCGCCCGCCCGGGCGUAUGGCAACGCGGAGCCAAGCUUCGGCGCCUGCGCCGAUGGAGGUGUAGAGACUAGACGGCACCCACCUAAGGCGAACGGUAUGGUGAAGGCAUAGUCAAGGGAGGGGCGAAAGUCACACAAACCGG [C82G A111G A145G C150G C169A U176G],0.0094
12,GUGCCUUGCGCCGGGAAACCACGCAAGGGAUGGUGUCAAAUUCGGCGAAACCUAAGCGCCCGCCCGGGCGUAUGGCAACGCGGAGCCAAGCUUCGGCGCCUGCGCCGAUGGAGGUGUAGAGACUAGACGGCACCCACCUAAGGCGAACGGUAUGGUGAAGGCAUAGUCAAGGGAGCGGCGAAAGUCACACAAACCGG [C82G A111G A145G C150G C169A U176C],0.0146
13,GUGCCUUGCGCCGGGAAACCACGCAAGGGAUGGUGUCAAAUUCGGCGAAACCUAAGCGCCCGCCCGGGCGUAUGGCAACGCGGAGCCAAGCUUCGGCGCCUGCGCCGAUGGAGGUGUAGAGACUAGACGGCACCCACCUAAGGCGAACGAUAUGGUGAAGGCAUAGUCCAGGGAGCGGCGAAAGUCACACAAACCGG [C82G A111G A145G C150A U176C],0.051
14,GUGCCUUGCGCCGGGAAACCACGCAAGGGAUGGUGUCAAAUUCGGCGAAACCUAAGCGCCCGCCCGGGCGUAUGGCAACGCGGAGCCAAGCUUCGGCGCCUGCGCCGAUGGAGGUGUAGAGACUAGACGGCACCCACCUAAGGCGAACGAUAUGGUGAAGGCAUAGUCCAGGGAGGGGCGAAAGUCACACAAACCGG [C82G A111G A145G C150A U176G],0.0208
15,GUGCCUUGCGCCGGGAAACCACGCAAGGGAUGGUGUCAAAUUCGGCGAAACCUAAGCGCCCGCCCGGGCGUAUGGCAACGCGGAGCCAAGCUUCGGCGCCUGCGCCGAUGGAGGUGUAGAGACUAGACGGCACCCACCUAAGGCGAACGAUAUGGUGAAGGCAUAGUCCAGGGAGAGGCGAAAGUCACACAAACCGG [C82G A111G A145G C150A U176A],0.0383
